Results as given in patent publication US20240226230A1 (MAYO FOUNDATION FOR MEDICAL EDUCATION AND RESEARCH, published 2024).
Where no end group is shown, it is not given here.

What was measured:
Assay in all cases: co-IP of GFP-tagged KPNB1 truncations, western blot
endogenous Ran = endogenous Ran (human, UniProt P62826 2-216)
Description: (§1) FIG. 21A) Schematic domain structure of KPNB1. KPNB1 is comprised of 19 HEAT repeats (H1-19). RanGTP and importin-α interact with H1-8 and H8-19, respectively. FG-Nups bind to two regions of KPNB1, H5-7 and H14-16. FIG. 21B) Lysates from HEK293T cells expressing GFP, GFP-KPNB1 full-length (FL), N-terminal fragments of KPNB1 (H1-9 . . . H1) or the C-terminal fragment of KPNB1 (H10-19) were subjected to immunoprecipitation with GFP-Trap magnetic beads. Whole cell lysates (input) and immunoprecipitates (IP) were subjected to western blot analysis using indicated antibodies. KPNB1 H1-8, the smallest fully active KPNB1 fragment in reducing TDP-43 aggregation, strongly interacts with FG-Nups and Ran, and weakly with importin-al in comparison with full-length KPNB1. FIG. 21C) (Top) Schematic domain structure of KPNB1 H1-8^mNIS harboring four missense mutations (1178A, F217A, Y255A, I263R) in the nucleoporin-interacting site (NIS). (Bottom) Lysates from HEK293T cells expressing GFP, GFP-KPNB1 H1-8^WT or H1-8^mNIS were subjected to immunoprecipitation with GFP-Trap magnetic beads. Whole cell lysates (input) and immunoprecipitates (IP) were subjected to western blot analysis using indicated antibodies. […] Hoechst staining was used to outline nuclei. Scale bar: 5 μm. […] Statistical analysis was performed using one-way ANOVA and Bonferroni's post hoc test (**p<0.01, ***p<0.001, n=4). FIG. 21F) IF of HEK293T cells co-expressing GFP-(GR)₁₀₀ with an empty plasmid (ctrl), FLAG-tagged KPNB1 H1-8^WT or H1-8^mNIS and stained for endogenous TDP-43. Unlike KPNB1 H1-8^mNIS, KPNB1 H1-8^WT prevents the sequestration of endogenous TDP-43 in cytoplasmic GR aggregates. Arrowheads point to cytoplasmic GR aggregates. Hoechst staining was used to outline nuclei. Scale bar: 5 μm.

endogenous Nup50 = target: T1, endogenous Nup50 (human, UniProt Q9UKX7 1-468, limits assumed)
T1 construct: Detected with anti-Nup50
T1 sequence (looked up): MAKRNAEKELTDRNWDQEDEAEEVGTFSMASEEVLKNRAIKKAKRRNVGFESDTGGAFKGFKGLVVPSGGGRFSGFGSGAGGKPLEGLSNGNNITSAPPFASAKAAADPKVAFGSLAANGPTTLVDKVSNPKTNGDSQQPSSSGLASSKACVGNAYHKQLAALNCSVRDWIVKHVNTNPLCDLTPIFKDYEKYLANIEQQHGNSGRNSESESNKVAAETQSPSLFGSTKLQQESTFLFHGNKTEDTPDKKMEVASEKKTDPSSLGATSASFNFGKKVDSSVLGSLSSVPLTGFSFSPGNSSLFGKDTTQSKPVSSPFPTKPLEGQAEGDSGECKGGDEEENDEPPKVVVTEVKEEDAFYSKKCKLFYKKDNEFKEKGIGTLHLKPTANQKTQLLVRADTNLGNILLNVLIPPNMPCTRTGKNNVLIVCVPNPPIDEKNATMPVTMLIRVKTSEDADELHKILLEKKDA
Description: as §1

endogenous Nup62 = target: T2, endogenous Nup62 (human, UniProt P37198 2-522)
T2 construct: Detected with anti-Nup62
T2 sequence (looked up): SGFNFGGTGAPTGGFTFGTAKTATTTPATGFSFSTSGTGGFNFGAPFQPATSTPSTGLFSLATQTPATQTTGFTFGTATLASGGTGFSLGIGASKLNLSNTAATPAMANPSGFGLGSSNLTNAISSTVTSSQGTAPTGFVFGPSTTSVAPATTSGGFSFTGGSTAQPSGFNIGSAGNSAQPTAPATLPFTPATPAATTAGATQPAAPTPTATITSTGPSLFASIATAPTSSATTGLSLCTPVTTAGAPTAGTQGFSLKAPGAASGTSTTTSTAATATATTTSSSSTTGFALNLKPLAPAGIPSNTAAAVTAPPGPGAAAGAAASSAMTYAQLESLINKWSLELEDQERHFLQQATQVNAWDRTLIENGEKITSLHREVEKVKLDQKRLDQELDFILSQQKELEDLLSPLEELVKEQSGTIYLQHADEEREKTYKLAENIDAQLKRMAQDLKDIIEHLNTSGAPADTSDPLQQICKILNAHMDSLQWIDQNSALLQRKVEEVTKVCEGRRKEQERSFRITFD
Description: as §1

endogenous importin-α1 = endogenous importin-α1 (human, UniProt P52292 2-529)
Description: as §1

Binder	binding result (endogenous Ran)	binding result (endogenous Nup50)	binding result (endogenous Nup62)	binding result (endogenous importin-α1)
GFP-KPNB1 H1-8 (receptor, also called GFP-KPNB1 H1-8^WT; not shown: GFP/EGFP tag (pEGFP-C1, Clontech)) GGGSGGGSGGGSMELITILEKTVSPDRLELEAAQKFLERAAVENLPTFLVELSRVLANPGNSQVARVAAGLQIKNSLTSKDPDIKAQYQQRWLAIDANARREVKNYVLQTLGTETYRPSSASQCVAGIACAEIPVNQWPELIPQLVANVTNPNSTEHMKESTLEAIGYICQDIDPEQLQDKSNEILTAIIQGMRKEEPSNNVKLAATNALLNSLEFTKANFDKESERHFIMQVVCEATQCPDTRVRVAALQNLVKIMSLYYQYMETYMGPALFAITIEAMKSDIDEVALQGIEFWSNVCDEEMDLAIEASEAAEQGRPPEHTSKFYAKGALQYLVPILTQTLTKQDENDDDDDWNPCKAAGVCLMLLATCCED	binds	binds	binds	
GFP-KPNB1 H1-9 (receptor, also called N-terminal half of KPNB1 (HEAT repeats 1-9); not shown: GFP/EGFP tag (pEGFP-C1, Clontech)) GGGSGGGSGGGSMELITILEKTVSPDRLELEAAQKFLERAAVENLPTFLVELSRVLANPGNSQVARVAAGLQIKNSLTSKDPDIKAQYQQRWLAIDANARREVKNYVLQTLGTETYRPSSASQCVAGIACAEIPVNQWPELIPQLVANVTNPNSTEHMKESTLEAIGYICQDIDPEQLQDKSNEILTAIIQGMRKEEPSNNVKLAATNALLNSLEFTKANFDKESERHFIMQVVCEATQCPDTRVRVAALQNLVKIMSLYYQYMETYMGPALFAITIEAMKSDIDEVALQGIEFWSNVCDEEMDLAIEASEAAEQGRPPEHTSKFYAKGALQYLVPILTQTLTKQDENDDDDDWNPCKAAGVCLMLLATCCEDDIVPHVLPFIKEHIKNPDWRYRDAAVMAFGCILEGP	binds	binds	binds	binds
GFP-KPNB1 H1-7 (receptor, not shown: GFP/EGFP tag (pEGFP-C1, Clontech)) GGGSGGGSGGGSMELITILEKTVSPDRLELEAAQKFLERAAVENLPTFLVELSRVLANPGNSQVARVAAGLQIKNSLTSKDPDIKAQYQQRWLAIDANARREVKNYVLQTLGTETYRPSSASQCVAGIACAEIPVNQWPELIPQLVANVTNPNSTEHMKESTLEAIGYICQDIDPEQLQDKSNEILTAIIQGMRKEEPSNNVKLAATNALLNSLEFTKANFDKESERHFIMQVVCEATQCPDTRVRVAALQNLVKIMSLYYQYMETYMGPALFAITIEAMKSDIDEVALQGIEFWSNVCDEEMDLAIEASEAAEQGRPP	no binding	no binding	no binding	no binding
GFP-KPNB1 H1-5 (receptor, not shown: GFP/EGFP tag (pEGFP-C1, Clontech)) GGGSGGGSGGGSMELITILEKTVSPDRLELEAAQKFLERAAVENLPTFLVELSRVLANPGNSQVARVAAGLQIKNSLTSKDPDIKAQYQQRWLAIDANARREVKNYVLQTLGTETYRPSSASQCVAGIACAEIPVNQWPELIPQLVANVTNPNSTEHMKESTLEAIGYICQDIDPEQLQDKSNEILTAIIQGMRKEEPSNNVKLAATNALLNSLEFTKANF	no binding	no binding	no binding	no binding
GFP-KPNB1 H1-4 (receptor, not shown: GFP/EGFP tag (pEGFP-C1, Clontech)) GGGSGGGSGGGSMELITILEKTVSPDRLELEAAQKFLERAAVENLPTFLVELSRVLANPGNSQVARVAAGLQIKNSLTSKDPDIKAQYQQRWLAIDANARREVKNYVLQTLGTETYRPSSASQCVAGIACAEIPVNQWPELIPQLVANVTNPNSTEHMKESTLEAIGYICQDIDPEQLQ	no binding	no binding	no binding	no binding
GFP-KPNB1 H1-3 (receptor, not shown: GFP/EGFP tag (pEGFP-C1, Clontech)) GGGSGGGSGGGSMELITILEKTVSPDRLELEAAQKFLERAAVENLPTFLVELSRVLANPGNSQVARVAAGLQIKNSLTSKDPDIKAQYQQRWLAIDANARREVKNYVLQTLGTETYRPSSASQCVAGIACAEIPVNQWP	no binding	no binding	no binding	no binding
GFP-KPNB1 H1-2 (receptor, not shown: GFP/EGFP tag (pEGFP-C1, Clontech)) GGGSGGGSGGGSMELITILEKTVSPDRLELEAAQKFLERAAVENLPTFLVELSRVLANPGNSQVARVAAGLQIKNSLTSKDPD	no binding	no binding	no binding	no binding
{GFP}-GGGSGGGSGGGSMELITILEKTVSPDRLELEAAQKFLERAAVEN (receptor, also: GFP tag fused N-terminally, not in chain, (GGGS)3 linker in chain, not shown: GFP/EGFP tag (pEGFP-C1, Clontech)) [GFP-KPNB1 H1]	no binding	no binding	no binding	no binding
GFP-KPNB1 H1-6 (receptor, not shown: GFP/EGFP tag (pEGFP-C1, Clontech)) GGGSGGGSGGGSMELITILEKTVSPDRLELEAAQKFLERAAVENLPTFLVELSRVLANPGNSQVARVAAGLQIKNSLTSKDPDIKAQYQQRWLAIDANARREVKNYVLQTLGTETYRPSSASQCVAGIACAEIPVNQWPELIPQLVANVTNPNSTEHMKESTLEAIGYICQDIDPEQLQDKSNEILTAIIQGMRKEEPSNNVKLAATNALLNSLEFTKANFDKESERHFIMQVVCEATQCPDTRVRVAALQNLVKIMSLYY	no binding	no binding	no binding	no binding
